Measured values taken from patent publication US12467929.

Legend:
[1] = target: recombinant UBE3A protein (Homo sapiens (Human)) (UniProt Q05086); experiment: 3-step Simoa; capture Novus; UBE3A 0.1 ng/ml
[2] = target: recombinant UBE3A protein (Homo sapiens (Human)) (UniProt Q05086); experiment: 2-step Simoa; capture Novus; UBE3A 10 ng/ml
[3] = target: recombinant UBE3A protein (Homo sapiens (Human)) (UniProt Q05086); experiment: 3-step Simoa; capture Novus; UBE3A 0.01 ng/ml
[4] = target: recombinant UBE3A protein (Homo sapiens (Human)) (UniProt Q05086); experiment: 2-step Simoa; capture GTX; UBE3A 10 ng/ml
[5] = target: recombinant UBE3A protein (Homo sapiens (Human)) (UniProt Q05086); experiment: 2-step Simoa; capture MS 3E5; UBE3A 0.01 ng/ml
[6] = target: recombinant UBE3A protein (Homo sapiens (Human)) (UniProt Q05086); experiment: 3-step Simoa; capture Novus; UBE3A 10 ng/ml
[7] = target: recombinant UBE3A protein (Homo sapiens (Human)) (UniProt Q05086); experiment: 3-step Simoa; capture GTX; UBE3A 0.1 ng/ml
[8] = target: recombinant UBE3A protein (Homo sapiens (Human)) (UniProt Q05086); experiment: 2-step Simoa; capture GTX; UBE3A 0.1 ng/ml
[9] = target: recombinant UBE3A protein (Homo sapiens (Human)) (UniProt Q05086); experiment: 2-step Simoa; capture GTX; UBE3A 1 ng/ml
[10] = target: recombinant UBE3A protein (Homo sapiens (Human)) (UniProt Q05086); experiment: 2-step Simoa; capture Novus; UBE3A 1 ng/ml
[11] = target: recombinant UBE3A protein (Homo sapiens (Human)) (UniProt Q05086); experiment: 3-step Simoa; capture MS 3E5; UBE3A 0.1 ng/ml
[12] = target: recombinant UBE3A protein (Homo sapiens (Human)) (UniProt Q05086); experiment: 3-step Simoa; capture GTX; UBE3A 10 ng/ml
[13] = target: recombinant UBE3A protein (Homo sapiens (Human)) (UniProt Q05086); experiment: 2-step Simoa; capture MS 3E5; UBE3A 1 ng/ml
[14] = target: recombinant UBE3A protein (Homo sapiens (Human)) (UniProt Q05086); experiment: 2-step Simoa; capture GTX; UBE3A 0.01 ng/ml
[15] = target: recombinant UBE3A protein (Homo sapiens (Human)) (UniProt Q05086); experiment: 3-step Simoa; capture GTX; UBE3A 1 ng/ml
[16] = target: recombinant UBE3A protein (Homo sapiens (Human)) (UniProt Q05086); experiment: 3-step Simoa; capture Novus; UBE3A 1 ng/ml
[17] = target: recombinant UBE3A protein (Homo sapiens (Human)) (UniProt Q05086); experiment: 3-step Simoa; capture MS 3E5; UBE3A 1 ng/ml
[18] = target: recombinant UBE3A protein (Homo sapiens (Human)) (UniProt Q05086); experiment: 2-step Simoa; capture MS 3E5; UBE3A 0.1 ng/ml
[19] = target: recombinant UBE3A protein (Homo sapiens (Human)) (UniProt Q05086); experiment: 2-step Simoa; capture Novus; UBE3A 0.1 ng/ml
[20] = target: recombinant UBE3A protein (Homo sapiens (Human)) (UniProt Q05086); experiment: 3-step Simoa; capture MS 3E5; UBE3A 0.010 ng/ml
[21] = target: recombinant UBE3A protein (Homo sapiens (Human)) (UniProt Q05086); experiment: 3-step Simoa; capture GTX; UBE3A 0.01 ng/ml
[22] = target: recombinant UBE3A protein (Homo sapiens (Human)) (UniProt Q05086); experiment: 3-step Simoa; capture MS 3E5; UBE3A 10 ng/ml
[23] = target: recombinant UBE3A protein (Homo sapiens (Human)) (UniProt Q05086); experiment: 2-step Simoa; capture MS 3E5; UBE3A 10 ng/ml
[24] = target: recombinant UBE3A protein (Homo sapiens (Human)) (UniProt Q05086); experiment: 2-step Simoa; capture Novus; UBE3A 0.01 ng/ml
[25] = target: UBE3A standard protein (Abcam, ab125736) (Homo sapiens (Human)) (UniProt Q05086); experiment: Singulex sandwich; capture GTX10488; interpolated UBE3A 78.6 pg/mL
[26] = target: UBE3A standard protein (ab206157, Abcam) (Homo sapiens (Human)) (UniProt Q05086); experiment: Singulex sandwich; capture GTX101092; UBE3A 10000 pg/ml
[27] = target: UBE3A standard protein (ab206157, Abcam) (Homo sapiens (Human)) (UniProt Q05086); experiment: Singulex sandwich; capture GTX101092; UBE3A 9.766 pg/ml
[28] = target: UBE3A standard protein (ab206157, Abcam) (Homo sapiens (Human)) (UniProt Q05086); experiment: Singulex sandwich; capture GTX101092; UBE3A 78.125 pg/ml
[29] = target: UBE3A standard protein (ab206157, Abcam) (Homo sapiens (Human)) (UniProt Q05086); experiment: Singulex sandwich; capture GTX101092; UBE3A 1250 pg/ml
[30] = target: UBE3A standard protein (Abcam, ab125736) (Homo sapiens (Human)) (UniProt Q05086); experiment: Singulex sandwich; capture GTX10488; interpolated UBE3A 661.46 pg/mL
[31] = target: UBE3A standard protein (ab206157, Abcam) (Homo sapiens (Human)) (UniProt Q05086); experiment: Singulex sandwich; capture GTX101092; UBE3A 2500 pg/ml
[32] = target: UBE3A standard protein (Abcam, ab125736) (Homo sapiens (Human)) (UniProt Q05086); experiment: Singulex sandwich; capture GTX10488; interpolated UBE3A 2039.33 pg/mL
[33] = target: UBE3A standard protein (ab206157, Abcam) (Homo sapiens (Human)) (UniProt Q05086); experiment: Singulex sandwich; capture GTX101092; UBE3A 312.5 pg/ml
[34] = target: UBE3A standard protein (Abcam, ab125736) (Homo sapiens (Human)) (UniProt Q05086); experiment: Singulex sandwich; capture GTX10488; interpolated UBE3A 31.06 pg/mL
[35] = target: UBE3A standard protein (Abcam, ab125736) (Homo sapiens (Human)) (UniProt Q05086); experiment: Singulex sandwich; capture GTX10488; interpolated UBE3A 256.41 pg/mL
[36] = target: UBE3A standard protein (ab206157, Abcam) (Homo sapiens (Human)) (UniProt Q05086); experiment: Singulex sandwich; capture GTX101092; UBE3A 5000 pg/ml
[37] = target: UBE3A standard protein (Abcam, ab125736) (Homo sapiens (Human)) (UniProt Q05086); experiment: Singulex sandwich; capture GTX10488; interpolated UBE3A 10.59 pg/mL
[38] = target: UBE3A standard protein (ab206157, Abcam) (Homo sapiens (Human)) (UniProt Q05086); experiment: Singulex sandwich; capture GTX101092; UBE3A 156.25 pg/ml
[39] = target: UBE3A standard protein (ab206157, Abcam) (Homo sapiens (Human)) (UniProt Q05086); experiment: Singulex sandwich; capture GTX101092; UBE3A 39.063 pg/ml
[40] = target: UBE3A standard protein (ab206157, Abcam) (Homo sapiens (Human)) (UniProt Q05086); experiment: Singulex sandwich; capture GTX101092; UBE3A 19.531 pg/ml
[41] = target: UBE3A standard protein (Abcam, ab125736) (Homo sapiens (Human)) (UniProt Q05086); experiment: Singulex sandwich; capture GTX10488; interpolated UBE3A 3.39 pg/mL
[42] = target: UBE3A standard protein (Abcam, ab125736) (Homo sapiens (Human)) (UniProt Q05086); experiment: Singulex sandwich; capture GTX10488; interpolated UBE3A ND

Substance: 2F6 (WH0007337M1-100 ug, Millipore-Sigma) (antibody)
- AEB1 [1]: 0.0269
- AEB2 [1]: 0.0251
- Ave AEB [1]: 0.026
- Signal to Background [1]: 1.09
- AEB1 [2]: 0.0475
- AEB2 [2]: 0.045
- Ave AEB [2]: 0.0462
- Signal to Background [2]: 0.92
- AEB1 [3]: 0.0221
- AEB2 [3]: 0.0242
- Ave AEB [3]: 0.0232
- Signal to Background [3]: 0.97
- AEB1 [4]: 0.109
- AEB2 [4]: 0.109
- Ave AEB [4]: 0.109
- Signal to Background [4]: 1.19
- AEB1 [5]: 0.0177
- AEB2 [5]: 0.016
- Ave AEB [5]: 0.0168
- Signal to Background [5]: 1.01
- AEB1 [6]: 0.0249
- Ave AEB [6]: 0.0249
- Signal to Background [6]: 1.04
- AEB1 [7]: 0.0432
- AEB2 [7]: 0.0414
- Ave AEB [7]: 0.0423
- Signal to Background [7]: 0.96
- AEB1 [8]: 0.0906
- AEB2 [8]: 0.0965
- Ave AEB [8]: 0.0936
- Signal to Background [8]: 1.02
- AEB1 [9]: 0.0965
- AEB2 [9]: 0.095
- Ave AEB [9]: 0.0957
- Signal to Background [9]: 1.04
- AEB1 [10]: 0.048
- AEB2 [10]: 0.0444
- Ave AEB [10]: 0.0462
- Signal to Background [10]: 0.93
- AEB1 [11]: 0.0078
- AEB2 [11]: 0.0073
- Ave AEB [11]: 0.0075
- Signal to Background [11]: 0.99
- AEB1 [12]: 0.047
- AEB2 [12]: 0.0463
- Ave AEB [12]: 0.0466
- Signal to Background [12]: 1.05
- AEB1 [13]: 0.0234
- AEB2 [13]: 0.0226
- Ave AEB [13]: 0.023
- Signal to Background [13]: 1.39
- AEB1 [14]: 0.0965
- AEB2 [14]: 0.0944
- Ave AEB [14]: 0.0955
- Signal to Background [14]: 1.04
- AEB1 [15]: 0.0409
- AEB2 [15]: 0.0476
- Ave AEB [15]: 0.0443
- Signal to Background [15]: 1
- AEB1 [16]: 0.0277
- AEB2 [16]: 0.024
- Ave AEB [16]: 0.0259
- Signal to Background [16]: 1.08
- AEB1 [17]: 0.009
- AEB2 [17]: 0.0088
- Ave AEB [17]: 0.0089
- Signal to Background [17]: 1.17
- AEB1 [18]: 0.0191
- AEB2 [18]: 0.018
- Ave AEB [18]: 0.0186
- Signal to Background [18]: 1.12
- AEB1 [19]: 0.047
- AEB2 [19]: 0.0451
- Ave AEB [19]: 0.046
- Signal to Background [19]: 0.93
- AEB1 [20]: 0.0052
- AEB2 [20]: 0.0068
- Ave AEB [20]: 0.006
- Signal to Background [20]: 0.792
- AEB1 [21]: 0.043
- AEB2 [21]: 0.0459
- Ave AEB [21]: 0.0445
- Signal to Background [21]: 1.01
- AEB1 [22]: 0.0203
- AEB2 [22]: 0.0195
- Ave AEB [22]: 0.0199
- Signal to Background [22]: 2.62
- AEB1 [23]: 0.0582
- AEB2 [23]: 0.0565
- Ave AEB [23]: 0.0574
- Signal to Background [23]: 3.46
- AEB1 [24]: 0.0511
- AEB2 [24]: 0.0431
- Ave AEB [24]: 0.0471
- Signal to Background [24]: 0.95

Substance: anti-UBE3A antibody H00007337-M02 (AbNova)
- DE Mean [25]: 1770 DE
- DE S/N [25]: 4.3
- EP Mean [25]: 291000 EP
- S-N [25]: 1170 DE
- AvgDE [26]: 12700 DE
- AvgDE [27]: 112 DE
- AvgDE [28]: 559 DE
- AvgDE [29]: 4130 DE
- DE Mean [30]: 9340 DE
- DE S/N [30]: 22.7
- EP Mean [30]: 2.27e+06 EP
- S-N [30]: 8460 DE
- AvgDE [31]: 6430 DE
- DE Mean [32]: 13600 DE
- DE S/N [32]: 33.1
- EP Mean [32]: 5.69e+06 EP
- S-N [32]: 13000 DE
- AvgDE [33]: 1610 DE
- DE Mean [34]: 925 DE
- DE S/N [34]: 2.3
- EP Mean [34]: 143000 EP
- S-N [34]: 470 DE
- DE Mean [35]: 4910 DE
- DE S/N [35]: 11.9
- EP Mean [35]: 926000 EP
- S-N [35]: 4290 DE
- AvgDE [36]: 10700 DE
- DE Mean [37]: 585 DE
- DE S/N [37]: 1.4
- EP Mean [37]: 91300 EP
- S-N [37]: 136 DE
- AvgDE [38]: 922 DE
- AvgDE [39]: 289 DE
- AvgDE [40]: 208 DE
- DE Mean [41]: 461 DE
- DE S/N [41]: 1.1
- EP Mean [41]: 71800 EP
- S-N [41]: 13 DE
- DE S/N [42]: 1
